Experiment [1] has as its target human wild type, full-length GIPF polypeptide (GIPFwt) (human) (UniProt Q2MKA7). Nature of the experiment: cell-based or functional assay.
For experiment [2], the target named is V5His6-tagged polypeptide of human GIPF (GIPFt) (human). Nature of the experiment: cell-based or functional assay.
Chain of V5His6-tagged polypeptide of human GIPF (GIPFt) (human) (chain, as listed by the source limits assumed): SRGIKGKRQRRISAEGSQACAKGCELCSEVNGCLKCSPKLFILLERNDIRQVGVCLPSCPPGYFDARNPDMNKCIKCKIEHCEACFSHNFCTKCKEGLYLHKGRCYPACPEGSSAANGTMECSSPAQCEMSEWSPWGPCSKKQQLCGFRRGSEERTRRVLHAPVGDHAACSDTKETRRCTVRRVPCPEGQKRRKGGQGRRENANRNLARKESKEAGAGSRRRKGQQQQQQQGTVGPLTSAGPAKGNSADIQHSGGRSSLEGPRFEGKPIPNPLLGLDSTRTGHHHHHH

Chain of UniProt Q2MKA7 (Q2MKA7 21-263 limits assumed): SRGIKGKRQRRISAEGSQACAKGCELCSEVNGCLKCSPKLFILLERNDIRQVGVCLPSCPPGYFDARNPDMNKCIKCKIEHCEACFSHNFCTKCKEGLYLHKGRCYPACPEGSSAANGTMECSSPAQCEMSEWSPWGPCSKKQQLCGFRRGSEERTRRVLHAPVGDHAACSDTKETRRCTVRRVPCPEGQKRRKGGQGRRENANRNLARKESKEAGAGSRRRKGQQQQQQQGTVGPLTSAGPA

In the case of “furin protease (from UniProt P09958 108-794) (enzyme)”, the N-terminal sequence analysis of protein from HEK293 cells; ratio of mature to dominant mature forms (ratio mature:dominant mature) in experiment [1] and in experiment [2] was 0.5 each time.

The record behind these values is patent US20050256044A1.
